Data set [1] in a line: Screen for dual transferase/ketothiolase activity with acetyl-CoA and sodium acrylate, LC-MS detection. In kind it is biochemical. To be noted: for ketothiol-product: 3-oxopent-4-enoyl-CoA via thiolase activity; for thiol-product: propenoyl-CoA via transferase activity. The method, then:
(§1) Acetyl-CoA was used at a final concentration of 1.5 mM and 30 mM of the substrate being studied (e.g. carboxylic acid salts, such as sodium acrylate) or 1.5 mM of propionyl-CoA in 50 mM Hepes buffer (pH 7.5). The reaction was started by addition of 0.5 mg/mL of YdiF pure protein or mutants to a final volume of 250 μL and incubated for 1 to 10 hours at 30° C.
Two controls were made from similar mixture except that the enzymes were inactivated by heating-up at 95° C. for 20 min or they were replaced by Buffer C.
(§2) All samples were prepared in triplicate and spun down at 15000 g for 20 min at 4° C. Detection of the thiol product (e.g. acryloyl-CoA) synthesized from CoA-transferase activity and the keto-thiol product (e.g. 3-oxopent-4-enoyl-CoA) due to putative thiolase activity of YdiF (or homologues) was carried out by Liquid Chromatography coupled to a qTof-Mass spectrometry (in positive mode), using a C18 column (Zorbax Eclipse C18, 2.1×50 mm, 1.8μ, Agilent, code product: 959757-902) and a gradient of 10 mM ammonium acetate and acetonitrile as mobile phase.
YdiF from Clostridium propionicum belongs to the enzymatic class EC2.8.3.8. Other members of this enzyme class with similar structural features to YdiF, as well as proteins with a CoA-transferase activity from close-by enzymatic classes, were screened for dual transferase/ketothiolase activity as described in Example 2. Acetyl-CoA and sodium acrylate were provided as substrates. LC-MS was used to detect the thiol-product (propenoyl-CoA) synthesized via the transferase activity and the ketothiol-product (3-oxopent-4-enoyl-CoA) synthesized via the thiolase activity, as described in Example 2.

Data set [2] in a line: Solubility of the expressed protein (Table 3). To be noted: protein expressed in E. coli.
Procedure: From a fresh LB plate containing the desired clone transformant, one colony (or small scratch) was picked to inoculate 25 mL of LB supplemented with the relevant antibiotic and the pre-culture was incubated overnight at 37° C., 230 rpm. The following morning, the TB auto-induced medium (Merck/Code product: 71491-5) was prepared by mixing 60 g TB/L supplemented with 10 mL Glycerol/L of TB and microwaved during 3+2 minutes at full power. The TB was cooled down before use and splitting it in sterile flasks. Then, the pre-culture incubated overnight in LB was centrifuged and the supernatant discarded. The obtained pellet was resuspended with 5 mL of freshly prepared TB medium and used to inoculate 500 mL of TB dispensed in sterile flasks and supplemented with the appropriate antibiotic. The inoculated medium was incubated at 28° C. for at least 20 h, 230 rpm.
The culture was centrifuged at least at 3000 g/20 min/4° C. and the pellet used immediately or stored at −80′C.
The pellets (fresh or thawed) were resuspended in 10 to 20 mL of Buffer A (50 mM Hepes+150 mM NaCl+40 mM Imidazole+5% Glycerol−pH 7.5). The resuspended cells were then sonicated in ice for, 5 min at 37% Amplitude with 5″ ON and 15″ OFF sonication pulse. The sonicated cells were centrifuged for at least 20 min at 15500 g and 4° C. The supernatant containing the soluble fraction of proteins was recovered, filtered using 0.45 or 0.2 um filters, and used for His-trap protein purification.
The nature of data set [3]: Substrate specificity, propionate with acetyl-CoA, LC-MS. Type of data set: biochemical. The method, then:
as §1, §2
(§3) To study the substrate specificity of YdiF, several commercially available substrates were provided to YdiF (and homologues) in combination with acetyl-CoA, as described in Example 2. LC-MS was used to detect the thiol-product synthesized via the transferase activity and the ketothiol-product synthesized via the thiolase activity.

A short description of data set [4]: Substrate specificity, butyrate with acetyl-CoA, LC-MS. In kind it is biochemical. As to the method:
as §1, §2, §3

Data set [5] can be described thus: Substrate specificity, 3-butenoate with acetyl-CoA, LC-MS. To be noted: substrate 3-butenoate + acetyl-CoA. In kind it is biochemical. The method, then: as §1, §2, §3
Data set [6] in a line: Substrate specificity, 4-pentenoate with acetyl-CoA, LC-MS. In kind it is biochemical. To be noted: substrate 4-pentenoate + acetyl-CoA. As to the method: as §1, §2, §3
A short description of data set [7]: Substrate specificity, 6-heptenoate with acetyl-CoA, LC-MS. Type of data set: biochemical. To be noted: substrate 6-heptenoate + acetyl-CoA. As to the method: as §1, §2, §3
Data set [8] can be described thus: Substrate specificity, 2-hexenoate with acetyl-CoA, LC-MS. In kind it is biochemical. To be noted: substrate 2-hexenoate + acetyl-CoA. The method, then:
as §1, §2, §3

Data set [9] is described as follows: Substrate specificity, 4-Hydroxybutyrate with acetyl-CoA, LC-MS. To be noted: substrate 4-Hydroxybutyrate + acetyl-CoA. Type of data set: biochemical. As to the method:
as §1, §2, §3
4-Hydroxybutyrate was used as a substrate with acetyl-CoA for protein 244 and the corresponding products from the transferase and ketothiolase activities of protein 244 were detected.

Our source for the ketothiol-product, thiol-product and Solubility values is patent US10570379B2, “Polypeptides for carbon-carbon bond formation and uses thereof” (INVISTA North America S.à.r.l., priority 2015, dated 2020).

B1: Bdigene 0345: Succinyl-CoA--D-citramalate CoA-transferase from Chloroflexus aurantiacus, Uniprot A9WGE3 (protein, UniProt A9WGE3 1-402, looked up)
Succinyl-CoA--D-citramalate …: MSSQRPPRPLDDVRVLELGAFLAGPFCGQLLADFGAEVIKVEPPGKGDPMREWGRHRYKGRTLWWPVLARNKKSITIDLRTPEGQALVKRLVPHVDMVLENFRPGTLEEWGLGWEELHALNPGLIMIRVSGFGQTGPYRDKAGFGSIGEAMGGIRAITGFPDRPPTRIGISIGDSLAATFAALGALVALHQRQRSGQGQVVDIGIYEGVLALMESMIPEYQLTGHIRERTGNILPNVAPSNIYPTADGSWFVIGANADTIFTRLAQAMGQPELATDPRFATHQARGEHQAELDDLIAAWTLNYTADQLQVMMDEYGVPAGRIYTAKEMLSDPHFIARQSIIGVHDPDLGEIKMQNVVPRLSATPGGVDWTGPALGQHNREIFTDLLGLTEDDLAMLQAKRVI
Take B1: in data set [1], the ketothiol-product entry was “✓” and the thiol-product result is on record as “✓”. The Solubility result in data set [2] is on record as “✓”.

B2: Bdigene 272: Acetate CoA-transferase YdiF from Peptostreptococcaceae bacterium oral taxon, Uniprot U2L5C9, SEQ ID NO: 5 (protein)
chain: MAKFVTLEEAVSVVKNGDTVATTGFVQVANPEALEWALGKRFEETKEPRDLTLFYCAGQGDGDCRAVNHFAKEGMLKRVVAGHFNMAPLLRQFISDNKCEAYNVPQGVLCNMVRDIAAKKPGVISHVGLNTFADPRIEGCKINLVTKEDIVELMMINGEEKLFYKTFPLTIAFIKGTYADERGNVTLENEGIPSEATSIAQSVHNCGGKVIVQVEKVVAAGTLDPKLVKVPGIYVDYIVQVDDPSMRQQCYGVDYEPELAGNVYIPLSDIPLKTPLNERKIIARRGAFEIRKGNVGNLGIGVPEVVSEVVSEEGITDWLTLTVEVGPVGGSPQGKNRFGTAINAEAILDQPYQFDFYDGGGLDIAYLGLAQADAKGNLNVSKFGDRVAGCGGFIDISQNSKAVVFCGSFTAGGLKVEVNDGKLNIVQEGKVKKFVNKVQQITFSGEYARKTGQRVFYVTERAVFQMKPEGLTLIEIAPGVDLEKDVLNQMEFKPLIAKDLKLMDERIFRPGPMGIKNDN
In the case of B2, in [1], the ketothiol-product entry is “✓” and the thiol-product entry is listed as “✓”. In addition, the Solubility result in [2] was “✓”.

B3: Bdigene 0344: Succinyl-CoA: acetate CoA-transferase from Acetobacter aceti, Uniprot B3EY95 (protein, UniProt B3EY95 1-505, looked up)
Succinyl-CoA:acetate …: MTERIRNVALRSKVCPAETASELIKHGDVVGTSGFTGAGYPKEVPKALAQRMEAAHDRGEKYQISLITGASTGPQLDGELAKANGVYFRSPFNTDATMRNRINAGETEYFDNHLGQVAGRAVQGNYGKFNIALVEATAITEDGGIVPTSSVGNSQTFLNLAEKVIIEVNEWQNPMLEGIHDIWDGNVSGVPTRDIVPIVRADQRVGGPVLRVNPDKIAAIVRTNDRDRNAPFAAPDETAKAIAGYLLDFFGHEVKQNRLPPSLLPLQSGVGNVANAVLEGLKEGPFENLVGYSEVIQDGMLAMLDSGRMRIASASSFSLSPEAAEEINNRMDFFRSKIILRQQDVSNSPGIIRRLGCIAMNGMIEADIYGNVNSTRVMGSKMMNGIGGSGDFARSSYLSIFLSPSTAKGGKISAIVPMAAHVDHIMQDAQIFVTEQGLADLRGLSPVQRAREIISKCAHPDYRPMLQDYFDRALKNSFGKHTPHLLTEALSWHQRFIDTGTMLPS
For the molecule B3, in data set [1], the ketothiol-product result is reported as “✓” and the thiol-product result is recorded as “✓”. The Solubility result in data set [2] is “✓”.

B4: Bdigene 237: Acetate/Propionate CoA-transferase (YdiF) from Clostridium propionicum, Uniprot Q9L3F7, SEQ ID NO: 1 (protein, listed as Clostridium propionicum)
chain: MRKVPIITADEAAKLIKDGDTVTTSGFVGNAIPEALDRAVEKRFLETGEPKNITYVYCGSQGNRDGRGAEHFAHEGLLKRYIAGHWATVPALGKMAMENKMEAYNVSQGALCHLFRDIASHKPGVFTKVGIGTFIDPRNGGGKVNDITKEDIVELVEIKGQEYLFYPAFPIHVALIRGTYADESGNITFEKEVAPLEGTSVCQAVKNSGGIVVVQVERVVKAGTLDPRHVKVPGIYVDYVVVADPEDHQQSLDCEYDPALSGEHRRPEVVGEPLPLSAKKVIGRRGAIELEKDVAVNLGVGAPEYVASVADEEGIVDFMTLTAESGAIGGVPAGGVRFGASYNADALIDQGYQFDYYDGGGLDLCYLGLAECDEKGNINVSRFGPRIAGCGGFINITQNTPKVFFCGTFTAGGLKVKIEDGKVIIVQEGKQKKFLKAVEQITFNGDVALANKQQVTYITERCVFLLKEDGLHLSEIAPGIDLQTQILDVMDFAPIIDRDANGQIKLMDAALFAEGLMGLKEMKS
Turning to B4, the ketothiol-product result in data set [1], in data set [3], in data set [4], in data set [5], in data set [6] and in data set [7] was “✓” throughout. The ketothiol-product result in data set [8] is reported as “✓”. Further, the thiol-product result in data set [1], in [3], in data set [4], in [5], in [6] and in [7] was “✓” throughout. For the same molecule, the thiol-product entry in data set [8] is listed as “✓”.

B5: Bdigene 0244: 4-Hydroxybutyrate-CoA transferase from Clostridium aminobutyricum, Uniprot Q9RM86, SEQ ID NO: 19 (protein, listed as Clostridium aminobutyricum)
chain: MDWKKIYEDRTCTADEAVKSIKSGDRVLFAHCVAEPPVLVEAMVANAAAYKNVTVSHMVTLGKGEYSKPEYKENFTFEGWFTSPSTRGSIAEGHGQFVPVFFHEVPSLIRKDIFHVDVFMVMVSPPDHNGFCCVGVSSDYTMQAIKSAKIVLAEVNDQVPVVYGDTFVHVSEIDKFVETSHPLPEIGLPKIGEVEAAIGKHCASLIEDGSTLQLGIGAIPDAVLSQLKDKKHLGIHSEMISDGVVDLYEAGVIDCSQKSIDKGKMAITFLMGTKRLYDFAANNPKVELKPVDYINHPSVVAQCSKMVCINACLQVDFMGQIVSDSIGTKQFSGVGGQVDFVRGASMSIDGKGKAIIAMPSVAKKKDGSMISKIVPFIDHGAAVTTSRNDADYVVTEYGIAEMKGKSLQDRARALINIAHPDFKDELKAEFEKRFNAAF
As to B5, the ketothiol-product result in data set [1] is given as “✓”; in data set [9] (listed as Protein 244), “✓”; in data set [9] (listed as protein 244), “detected”. Also, the thiol-product result is given as “✓” in data set [1], “✓” in data set [9] (listed as Protein 244) and “detected” in [9] (listed as protein 244). In addition, the Solubility result in data set [2] is listed as “✓”.

B6: Bdigene 274: Acetate CoA-transferase YdiF from Megasphaera elsdenii DSM 20460, Uniprot G0VND6, SEQ ID NO: 7 (protein, listed as Megasphaera elsdenii)
chain: MRKVEIITAEQAAQLVKDNDTITSIGFVSSAHPEALTKALEKRFLDTNTPQNLTYIYAGSQGKRDGRAAEHLAHTGLLKRAIIGHWQTVPAIGKLAVENKIEAYNFSQGTLVHWFRALAGHKLGVFTDIGLETFLDPRQLGGKLNDVTKEDLVKLIEVDGHEQLFYPTFPVNVAFLRGTYADESGNITMDEEIGPFESTSVAQAVHNCGGKVVVQVKDVVAHGSLDPRMVKIPGIYVDYVVVAAPEDHQQTYDCEYDPSLSGEHRAPEGATDAALPMSAKKIIGRRGALELTENAVVNLGVGAPEYVASVAGEEGIADTITLTVEGGAIGGVPQGGARFGSSRNADAIIDHTYQFDFYDGGGLDIAYLGLAQCDGSGNINVSKFGTNVAGCGGFPNISQQTPNVYFCGTFTAGGLKIAVEDGKVKILQEGKAKKFIKAVDQITFNGSYAARNGKHVLYITERCVFELTKEGLKLIEVAPGIDIEKDILAHMDFKPIIDNPKLMDARLFQDGPMGLKK
Take B6: in data set [1], the ketothiol-product result is given as “✓” and the thiol-product entry is “✓”. Also, the Solubility entry in data set [2] was “✓”.
